Sequences and labels used below:
B1: Peptide 424 (peptide)
peptide: H[Aib]QGTFTSDVSK[αMeF]LDKK([AEEA-AEEA-γGlu-C18 diacid])RAQDFVRWLL[Aib]TK-OH
modifications: N-terminus assumed
SMILES: CC(C)C[C@H](NC(=O)[C@H](Cc1c[nH]c2ccccc12)NC(=O)[C@H](CCCNC(=N)N)NC(=O)[C@@H](NC(=O)[C@H](Cc1ccccc1)NC(=O)[C@H](CC(=O)O)NC(=O)[C@H](CCC(N)=O)NC(=O)[C@H](C)NC(=O)[C@H](CCCNC(=N)N)NC(=O)[C@H](CCCCNC(=O)COCCOCCNC(=O)COCCOCCNC(=O)CC[C@H](NC(=O)CCCCCCCCCCCCCCCCC(=O)O)C(=O)O)NC(=O)[C@H](CCCCN)NC(=O)[C@H](CC(=O)O)NC(=O)[C@H](CC(C)C)NC(=O)[C@](C)(Cc1ccccc1)NC(=O)[C@H](CCCCN)NC(=O)[C@H](CO)NC(=O)[C@@H](NC(=O)[C@H](CC(=O)O)NC(=O)[C@H](CO)NC(=O)[C@@H](NC(=O)[C@H](Cc1ccccc1)NC(=O)[C@@H](NC(=O)CNC(=O)[C@H](CCC(N)=O)NC(=O)C(C)(C)NC(=O)[C@@H](N)Cc1c[nH]cn1)[C@@H](C)O)[C@@H](C)O)C(C)C)C(C)C)C(=O)N[C@@H](CC(C)C)C(=O)NC(C)(C)C(=O)N[C@H](C(=O)N[C@@H](CCCCN)C(=O)O)[C@@H](C)O
B2: Peptide 426 (peptide)
peptide: H[Aib]QGTFTSDVSK[αMeF]LDKK([AEEA-AEEA-γGlu-C18 diacid])RAQDFVRWLLR[Aib]K-OH
modifications: N-terminus assumed
SMILES: CC(C)C[C@H](NC(=O)[C@H](Cc1c[nH]c2ccccc12)NC(=O)[C@H](CCCNC(=N)N)NC(=O)[C@@H](NC(=O)[C@H](Cc1ccccc1)NC(=O)[C@H](CC(=O)O)NC(=O)[C@H](CCC(N)=O)NC(=O)[C@H](C)NC(=O)[C@H](CCCNC(=N)N)NC(=O)[C@H](CCCCNC(=O)COCCOCCNC(=O)COCCOCCNC(=O)CC[C@H](NC(=O)CCCCCCCCCCCCCCCCC(=O)O)C(=O)O)NC(=O)[C@H](CCCCN)NC(=O)[C@H](CC(=O)O)NC(=O)[C@H](CC(C)C)NC(=O)[C@](C)(Cc1ccccc1)NC(=O)[C@H](CCCCN)NC(=O)[C@H](CO)NC(=O)[C@@H](NC(=O)[C@H](CC(=O)O)NC(=O)[C@H](CO)NC(=O)[C@@H](NC(=O)[C@H](Cc1ccccc1)NC(=O)[C@@H](NC(=O)CNC(=O)[C@H](CCC(N)=O)NC(=O)C(C)(C)NC(=O)[C@@H](N)Cc1c[nH]cn1)[C@@H](C)O)[C@@H](C)O)C(C)C)C(C)C)C(=O)N[C@@H](CC(C)C)C(=O)N[C@@H](CCCNC(=N)N)C(=O)NC(C)(C)C(=O)N[C@@H](CCCCN)C(=O)O
B3: Peptide 423 (peptide)
peptide: H[Aib]QGTFTSDVSK[αMeF]LDKK([AEEA-AEEA-γGlu-C18 diacid])RAQDFVRWLK[Aib]TE-OH
modifications: N-terminus assumed
SMILES: CC(C)C[C@H](NC(=O)[C@H](Cc1c[nH]c2ccccc12)NC(=O)[C@H](CCCNC(=N)N)NC(=O)[C@@H](NC(=O)[C@H](Cc1ccccc1)NC(=O)[C@H](CC(=O)O)NC(=O)[C@H](CCC(N)=O)NC(=O)[C@H](C)NC(=O)[C@H](CCCNC(=N)N)NC(=O)[C@H](CCCCNC(=O)COCCOCCNC(=O)COCCOCCNC(=O)CC[C@H](NC(=O)CCCCCCCCCCCCCCCCC(=O)O)C(=O)O)NC(=O)[C@H](CCCCN)NC(=O)[C@H](CC(=O)O)NC(=O)[C@H](CC(C)C)NC(=O)[C@](C)(Cc1ccccc1)NC(=O)[C@H](CCCCN)NC(=O)[C@H](CO)NC(=O)[C@@H](NC(=O)[C@H](CC(=O)O)NC(=O)[C@H](CO)NC(=O)[C@@H](NC(=O)[C@H](Cc1ccccc1)NC(=O)[C@@H](NC(=O)CNC(=O)[C@H](CCC(N)=O)NC(=O)C(C)(C)NC(=O)[C@@H](N)Cc1c[nH]cn1)[C@@H](C)O)[C@@H](C)O)C(C)C)C(C)C)C(=O)N[C@@H](CCCCN)C(=O)NC(C)(C)C(=O)N[C@H](C(=O)N[C@@H](CCC(=O)O)C(=O)O)[C@@H](C)O
B4: Peptide 425 (peptide)
peptide: H[Aib]QGTFTSDVSK[αMeF]LDKK([AEEA-AEEA-γGlu-C18 diacid])RAQDFVRWLKA[Aib]G-OH
modifications: N-terminus assumed
SMILES: CC(C)C[C@H](NC(=O)[C@H](Cc1c[nH]c2ccccc12)NC(=O)[C@H](CCCNC(=N)N)NC(=O)[C@@H](NC(=O)[C@H](Cc1ccccc1)NC(=O)[C@H](CC(=O)O)NC(=O)[C@H](CCC(N)=O)NC(=O)[C@H](C)NC(=O)[C@H](CCCNC(=N)N)NC(=O)[C@H](CCCCNC(=O)COCCOCCNC(=O)COCCOCCNC(=O)CC[C@H](NC(=O)CCCCCCCCCCCCCCCCC(=O)O)C(=O)O)NC(=O)[C@H](CCCCN)NC(=O)[C@H](CC(=O)O)NC(=O)[C@H](CC(C)C)NC(=O)[C@](C)(Cc1ccccc1)NC(=O)[C@H](CCCCN)NC(=O)[C@H](CO)NC(=O)[C@@H](NC(=O)[C@H](CC(=O)O)NC(=O)[C@H](CO)NC(=O)[C@@H](NC(=O)[C@H](Cc1ccccc1)NC(=O)[C@@H](NC(=O)CNC(=O)[C@H](CCC(N)=O)NC(=O)C(C)(C)NC(=O)[C@@H](N)Cc1c[nH]cn1)[C@@H](C)O)[C@@H](C)O)C(C)C)C(C)C)C(=O)N[C@@H](CCCCN)C(=O)N[C@@H](C)C(=O)NC(C)(C)C(=O)NCC(=O)O
B5: Peptide 422 (peptide)
peptide: H[Aib]QGTFTSDVSK[αMeF]LDRK([AEEA-AEEA-γGlu-C18 diacid])RAQDFVRWLL[Aib]TE-NH2
modifications: N-terminus assumed
SMILES: CC(C)C[C@H](NC(=O)[C@H](Cc1c[nH]c2ccccc12)NC(=O)[C@H](CCCNC(=N)N)NC(=O)[C@@H](NC(=O)[C@H](Cc1ccccc1)NC(=O)[C@H](CC(=O)O)NC(=O)[C@H](CCC(N)=O)NC(=O)[C@H](C)NC(=O)[C@H](CCCNC(=N)N)NC(=O)[C@H](CCCCNC(=O)COCCOCCNC(=O)COCCOCCNC(=O)CC[C@H](NC(=O)CCCCCCCCCCCCCCCCC(=O)O)C(=O)O)NC(=O)[C@H](CCCNC(=N)N)NC(=O)[C@H](CC(=O)O)NC(=O)[C@H](CC(C)C)NC(=O)[C@](C)(Cc1ccccc1)NC(=O)[C@H](CCCCN)NC(=O)[C@H](CO)NC(=O)[C@@H](NC(=O)[C@H](CC(=O)O)NC(=O)[C@H](CO)NC(=O)[C@@H](NC(=O)[C@H](Cc1ccccc1)NC(=O)[C@@H](NC(=O)CNC(=O)[C@H](CCC(N)=O)NC(=O)C(C)(C)NC(=O)[C@@H](N)Cc1c[nH]cn1)[C@@H](C)O)[C@@H](C)O)C(C)C)C(C)C)C(=O)N[C@@H](CC(C)C)C(=O)NC(C)(C)C(=O)N[C@H](C(=O)N[C@@H](CCC(=O)O)C(N)=O)[C@@H](C)O

Starred links: 1 amine or outer side, 2 acyl side, 3 side chain; linkers in the order of their positions; H or OH if unused. Non-standard residues stand in square brackets, D forms with d. Groups on a side chain read outwards from the residue. No end group written: not given here. *: point of attachment. C18 diacid = O=C(O)CCCCCCCCCCCCCCCCC(=O)*; γGlu = O=C(O)[C@H](CCC(=O)[*:2])N[*:1]; αMeF = C[C@](N)(Cc1ccccc1)C(=O)O; AEEA = NCCOCCOCC(=O)O; Aib = CC(C)(N)C(=O)O

The target in the first assay is human GLP-1 receptor (human, UniProt P43220). Briefly: cell-based or functional assay.
As to B1, the “cAMP production EC50” value amounted to 0.0155 nM.

Turning to B2, the “cAMP production EC50” value amounted to 0.0073 nM.

Consider B3, for which the “cAMP production EC50” value came to 0.0261 nM.

As to B4, the “cAMP production EC50” value came out at 0.0115 nM.

In the case of B5, the “cAMP production EC50” value is 0.0276 nM.

The next assay has as its target human glucagon receptor (human, UniProt P47871). Briefly: cell-based or functional assay.
In the case of B1, the “cAMP production EC50” value was determined as 0.129 nM.

On to B2, for which the “cAMP production EC50” value was 0.0612 nM.

For B3, the “cAMP production EC50” value amounted to 2.22 nM.

As for B4, the “cAMP production EC50” value turned out to be 0.827 nM.

With B5, the “cAMP production EC50” value came to 0.123 nM.
